# Test system: CD1 male mice
# Test: In vivo bioluminescence imaging of mice injected with AAV9 constructs, induction by phenobarbital
# Method: • Seed HEK 293-AAV cells in 15 cm plates. To be 70-80% confluent on the day of transfection • Final volume on each plate: 15 ml Day 2: Prepare Transfection Mix: • DNA mix/plate: pDG9 (Packaging plasmid for AAV9): 10.5 μg/pHGTI (Ad. Helper plasmid): 31.5 μg/Vector plasmid: 10.5 μg/Prepare in serum free DMEM/Optimem • Transfer mix/plate: PEI: 125 μl/Prepare in serum free DMEM/Optimem • Add DNA mix into transfection mix. Mix and leave at room temperature for 15-20 mins. • Add 3 ml of transfection mix to each plate drop-wise and gently distribute. Incubate for 24 h. Day 3: • Replace media with 15 ml DMEM supplemented with P/S and 2% FCS. Leave for 48 h. Day 5: • Collect supernatant and pool in 50 ml tubes, 25 ml each tube. Store at −20° C. • Collect cells: Add 5 ml of PBS to each plate→scrape and collect in 50 ml tubes. • To wash plates, add another 1 ml of PBS and collect. • Spin at 1500 rpm for 5 mins. • Remove supernatant and resuspend pelleted cells in 1 ml/plate TD lysis buffer→pool • Store at −80′C. Endonuclease Treatment Cells: • Freeze and thaw pellets 5 times→˜20 mins at 37° C. then ˜20 mins in dry ice (or −80° C.). • Add 25 μl/ml cells of 20% Deoxycholate (or 50 μl/ml of 10% Deoxycholate). • Add 8 μl/ml cells of benzonase. • Incubate at 37° C. for 30 mins. • Spin at 4 Krpm for 30 mins. • Filter supernatant using […] filters. • Store at 4° C. for up to 24 h. Supernatant: • Add 2.5 μl/25 ml supernatant of benzonase. • Add 50 μl/25 ml supernatant of MgSO4. • Incubate at 37° C. for 30 mins. • Spin at 4 Krpm for 30 mins. • Filter supernatant using […] filters. • Store at 4′C for up to 24 h. Hplc Purification • Place both lines in 20% ETOH→template→system wash • Put line A in PBS and line B in Glycine→template→system wash • Place the column in the machine→manual run→flowrate: 5 ml/min→Run for 25 ml or until the UV line is flat. • Prepare FACS tubes (10 for cells and more for supernatant): add 30 μl/tube Tris→put in the machine to collect vectors. • Place the waste lines in a separate tube to be able to run them again through the column. • Run samples (flowrate low, depending on how fast the system and how concentrated the sample is; for cells it is slower, for supernatant it is higher). • After running the waste through the column, wash with PBS→flowrate: 5 ml/min until the UV line is flat. • Set→fraction size: 1 ml; Flowrate: 1 ml/min; concentration % B: 100%→run. • Start collecting: Look for the peak. The peak indicates vector purification. Mark the tubes containing these vectors. • Save programme before exiting. • Wash with PBS→75 ml, 5 ml/min • Wash with Na3PO4 (to store the column in)→75 ml, 5 ml/min • Remove column and store at 4° C. • Wash the machine with PBS→template→system wash • Wash the machine with 20% ETOH→template→system wash • Put both lines in 20% ETOH and shut down • Add 2 L of PBS into a big bucket and put the Dialysis cassette (Side-A-Lyzer; Thermo scientific) to prime. • Collect the vectors from the marked FACS tubes using a syringe and needle and add into the dialysis cassette→remove excess air from the membrane, carefully place the rubber on top of the cassette and let it float in the PBS-containing bucket→leave over night at room temperature on a slow rotating rotor. Next Day: • Prime membrane by adding 5 ml PBS onto a centrifugal filter (Amico Ultra 15; MERCK)→spin for 5 mins at 4 Krpm • Remove excess PBS from inside the membrane. • Take vectors out from the cassette and load onto the membrane→spin for 5 mins at 4 Krpm • Wash the membrane with the vectors inside few times, then collect into 2 ml centrifuge tube filter 0.22 μM (Spin-X; COSTAR) • Spin for 3 mins at 13 Krpm. • Remove filter and aliquot: 1×100 μl (for injection), the rest in 10-2 μl aliquots. • Store in −80° C. • Virus quantification was performed using qRT-PCR with primers and probes for the luciferase gene. Mice Experiment […]
# [1] = AAV9, phenobarbital intraperitoneally
molecule,measurement,setting,value
"PB1-MinTK: promoter: single mouse PBREM element and MinTK minimal promoter, SEQ ID NO: 7 (nucleic acid, PB1-MinTK) DNA: TCTGTACTTTCCTGACCTTGGCACAGTGCCACCATCAACTTGCCTGACACCGATCCGGCCCCGCCCAGCGTCTTGTCATTGGCGAATTCGAACACGCAGATGCAGTCGGGGCGGCGCGGTCCGAGGTCCACTTCGCATATTAAGGTGACGCGTGTGGCCTCGAACACCGAGCGACCCTGCAGCGACCCGCTTAACAGCGTCAACAGCGTGCCGCAGATCTCGAGGAGCTTGGCGAGATTTTCAGGAGCTAAGGAAGCTAAAC",luciferase expression before induction,0 hrs,no expression of the luciferase gene
same,time at which induction is complete,[1],24 h
same,time of maximal activity after induction,[1],9 h
same,tissue distribution of luciferase expression,AAV9 via tail vein,confined to the liver
